According to the supplement of paper PMC9112550, “Optimization of the antimicrobial peptide Bac7 by deep mutational scanning” (BMC Biology, 2022):

Test system: Escherichia coli TOP10
Test: shrunken log2 fold change of peptide-encoding DNA abundance (4.5 h post-induction vs induction); higher = less antimicrobial activity (less host growth inhibition)
Conditions: time post-induction: 4.5 h; library: site-saturation at positions 5, 18, 19, 20
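Note: peptides expressed intracellularly from a pBAD plasmid library in pooled LB shake-flask culture, induced with 0.3% L-arabinose, DNA abundance read by NGS, three biological replicates, DESeq2 with apeglm shrinkage.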

Sequence	shrunken log2 fold change
RRIRNRPPRLPRPRPRPHVTPRP	-0.357
RRIRVRPPRLPRPRPRPSRRPRP	0.157
RRIRCRPPRLPRPRPRPPINPRP	-0.319
RRIRYRPPRLPRPRPRPKVFPRP	0.149
RRIRRRPPRLPRPRPRPSTSPRP	0.0625
RRIRKRPPRLPRPRPRPRFKPRP	0.52
RRIRHRPPRLPRPRPRPQQLPRP	0.044
RRIRARPPRLPRPRPRPQTVPRP	0.129
RRIRFRPPRLPRPRPRPKHLPRP	-0.0736
RRIRDRPPRLPRPRPRPCQIPRP	0.0759
RRIRYRPPRLPRPRPRPHCWPRP	-0.702
RRIRTRPPRLPRPRPRPFPCPRP	-0.197
RRIRGRPPRLPRPRPRPHCNPRP	0.427
RRIRTRPPRLPRPRPRPDSTPRP	-0.232
RRIRGRPPRLPRPRPRPALWPRP	0.985
RRIRLRPPRLPRPRPRPAKIPRP	-0.143
RRIRQRPPRLPRPRPRPSYEPRP	0.0509
RRIRSRPPRLPRPRPRPSTCPRP	0.0296
RRIRIRPPRLPRPRPRPQTQPRP	-0.244
RRIRCRPPRLPRPRPRPREYPRP	-0.22
RRIRERPPRLPRPRPRPLPLPRP	-0.0754
RRIRHRPPRLPRPRPRPYNRPRP	-0.0244

Sequence	shrunken log2 fold change
RRIRWRPPRLPRPRPRPIWDPRP	0.214
RRIRKRPPRLPRPRPRPKWTPRP	0.198
RRIRVRPPRLPRPRPRPIMNPRP	-0.752
RRIRDRPPRLPRPRPRPPVAPRP	0.304
RRIRYRPPRLPRPRPRPVMAPRP	-0.335
RRIRKRPPRLPRPRPRPVVKPRP	-0.0849
RRIRRRPPRLPRPRPRPWYIPRP	-0.595
RRIRFRPPRLPRPRPRPRKEPRP	-0.0425
RRIRIRPPRLPRPRPRPSFQPRP	-0.329
RRIRTRPPRLPRPRPRPPTIPRP	-0.248
RRIRCRPPRLPRPRPRPQSNPRP	-0.822
RRIRPRPPRLPRPRPRPPDQPRP	0.601
RRIRKRPPRLPRPRPRPNSMPRP	-0.115
RRIRLRPPRLPRPRPRPHSEPRP	-0.431
RRIRQRPPRLPRPRPRPPPRPRP	1.25
RRIRFRPPRLPRPRPRPVKYPRP	-0.147
RRIRFRPPRLPRPRPRPMEGPRP	-0.0345
RRIRFRPPRLPRPRPRPQGKPRP	-0.227
RRIRMRPPRLPRPRPRPQRAPRP	0.943
RRIRIRPPRLPRPRPRPAAMPRP	0.391
RRIRKRPPRLPRPRPRPVVEPRP	0.274
RRIRSRPPRLPRPRPRPHKCPRP	0.00997

Sequence	shrunken log2 fold change
RRIRGRPPRLPRPRPRPRMYPRP	0.0954
RRIRRRPPRLPRPRPRPTWPPRP	0.647
RRIRKRPPRLPRPRPRPSWRPRP	0.211
RRIRNRPPRLPRPRPRPTMAPRP	0.0535
RRIRMRPPRLPRPRPRPLNGPRP	-0.00843
RRIRYRPPRLPRPRPRPQSYPRP	-0.0246
RRIRPRPPRLPRPRPRPQVWPRP	0.202
RRIRIRPPRLPRPRPRPRHGPRP	-0.136
RRIRTRPPRLPRPRPRPPDNPRP	-0.0234
RRIRMRPPRLPRPRPRPFECPRP	0.0161
RRIRSRPPRLPRPRPRPQGRPRP	-0.0801
RRIRPRPPRLPRPRPRPIIDPRP	-0.297
RRIRVRPPRLPRPRPRPDGGPRP	-0.0572
RRIRSRPPRLPRPRPRPGCPPRP	0.18
RRIRVRPPRLPRPRPRPDTNPRP	-0.479
RRIRKRPPRLPRPRPRPKFGPRP	0.0786
RRIRPRPPRLPRPRPRPEHPPRP	0.231
RRIRVRPPRLPRPRPRPRAYPRP	-0.224
RRIRQRPPRLPRPRPRPLKLPRP	-0.017
RRIRFRPPRLPRPRPRPHDNPRP	-0.392
RRIRPRPPRLPRPRPRPIEYPRP	0.0392
RRIRGRPPRLPRPRPRPSESPRP	0.504

Sequence	shrunken log2 fold change
RRIRTRPPRLPRPRPRPGIIPRP	0.0136
RRIRFRPPRLPRPRPRPKLVPRP	0.147
RRIRSRPPRLPRPRPRPTIAPRP	0.105
RRIRSRPPRLPRPRPRPAKHPRP	-0.0685
RRIRERPPRLPRPRPRPDFIPRP	-0.092
RRIRDRPPRLPRPRPRPQTMPRP	-0.067
RRIRMRPPRLPRPRPRPRRFPRP	0.339
RRIRRRPPRLPRPRPRPKAEPRP	0.0655
RRIRARPPRLPRPRPRPAYIPRP	-0.148
RRIRARPPRLPRPRPRPDKAPRP	0.121
RRIRVRPPRLPRPRPRPHGAPRP	-0.0881
RRIRGRPPRLPRPRPRPSFVPRP	0.0328
RRIRARPPRLPRPRPRPSSWPRP	0.158
RRIRHRPPRLPRPRPRPYLNPRP	-1.2
RRIRVRPPRLPRPRPRPTRRPRP	0.529
RRIRYRPPRLPRPRPRPWRGPRP	0.318
RRIRNRPPRLPRPRPRPLGYPRP	-0.165
RRIRGRPPRLPRPRPRPNRVPRP	0.0309
RRIRLRPPRLPRPRPRPPTPPRP	0.617
RRIRYRPPRLPRPRPRPSYMPRP	-1.41
RRIRDRPPRLPRPRPRPIWNPRP	-0.0889
RRIRMRPPRLPRPRPRPPGDPRP	1.51

Sequence	shrunken log2 fold change
RRIRCRPPRLPRPRPRPHGIPRP	-0.0487
RRIRHRPPRLPRPRPRPLVDPRP	-0.219
RRIRYRPPRLPRPRPRPAYKPRP	-0.14
RRIRTRPPRLPRPRPRPANRPRP	-0.0396
RRIRPRPPRLPRPRPRPAPAPRP	0.425
RRIRKRPPRLPRPRPRPVHFPRP	-0.0637
RRIRDRPPRLPRPRPRPMRIPRP	-0.0494
RRIRRRPPRLPRPRPRPTTAPRP	0.541
RRIRERPPRLPRPRPRPTFTPRP	-0.134
RRIRFRPPRLPRPRPRPQYFPRP	-0.416
RRIRARPPRLPRPRPRPTDMPRP	-0.0247
RRIRKRPPRLPRPRPRPNYEPRP	-0.0635
RRIRLRPPRLPRPRPRPSWFPRP	-0.237
RRIRNRPPRLPRPRPRPLNMPRP	-0.636
RRIRNRPPRLPRPRPRPCGMPRP	-0.45
RRIRYRPPRLPRPRPRPCLCPRP	-0.453
RRIRRRPPRLPRPRPRPVPGPRP	0.402
RRIRKRPPRLPRPRPRPAAWPRP	0.443
RRIRARPPRLPRPRPRPESHPRP	1.04
RRIRKRPPRLPRPRPRPGNRPRP	0.143
RRIRARPPRLPRPRPRPPDVPRP	0.655
